{"source": "paper PMC10364586", "about": "(Protein Science : A Publication of the Protein Society, 2023)", "key": {"[1]": {"target": "T1, PADI4 (peptidyl-arginine deiminase 4), recombinant, dimeric (human, UniProt Q9UM07 1-663)", "T1 sequence (Q9UM07 whole entry)": "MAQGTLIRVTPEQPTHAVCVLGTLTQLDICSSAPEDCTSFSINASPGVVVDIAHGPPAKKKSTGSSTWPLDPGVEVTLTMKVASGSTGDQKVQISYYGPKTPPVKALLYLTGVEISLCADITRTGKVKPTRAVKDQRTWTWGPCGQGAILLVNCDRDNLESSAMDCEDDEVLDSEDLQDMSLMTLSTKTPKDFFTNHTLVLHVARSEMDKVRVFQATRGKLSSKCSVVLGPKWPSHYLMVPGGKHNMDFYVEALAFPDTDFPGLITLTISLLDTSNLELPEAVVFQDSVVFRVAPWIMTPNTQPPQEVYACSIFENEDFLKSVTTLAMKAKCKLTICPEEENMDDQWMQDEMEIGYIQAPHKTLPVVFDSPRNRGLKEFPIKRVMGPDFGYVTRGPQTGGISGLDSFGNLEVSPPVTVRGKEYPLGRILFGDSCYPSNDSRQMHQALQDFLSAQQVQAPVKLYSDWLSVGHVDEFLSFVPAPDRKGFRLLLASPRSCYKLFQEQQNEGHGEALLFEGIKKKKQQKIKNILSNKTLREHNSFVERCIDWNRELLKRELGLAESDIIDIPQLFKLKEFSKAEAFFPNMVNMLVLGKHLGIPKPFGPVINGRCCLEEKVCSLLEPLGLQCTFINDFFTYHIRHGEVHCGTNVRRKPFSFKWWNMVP", "assay": "ITC"}, "[2]": {"target": "T1, PADI4 (peptidyl-arginine deiminase 4), …", "assay": "other fluorescence titration"}}, "note": "Where “and” joins values, the source holds several entries; their conditions need not be identical. Equal values may be shown once.", "data": [{"binder": "His-tagged N-MDM2 (N-terminal region of MDM2, residues 6-125 of the intact protein) (domain or fragment, UniProt Q00987 6-125, looked up, 15N-labelled in the NMR experiment only) MSVPTDGAVTTSQIPASEQETLVRPKPLLLKLLKSVGAQKDTYTMKEVLFYLGQYIMTKRLYDEKQQHIVYCSNDLLGDLFGVPSFSVKEHRKIYTMIYRNLVVVNQQESSDSGTSVSEN", "values": [{"measurement": "Kd", "setting": "[1]", "value": "1 ± 0.2", "unit": "µM"}, {"measurement": "Kd", "setting": "[2]", "value": "5 µM and ~6 µM"}]}]}
